Measured values as given in the supplement of paper PMC7125110.
± gives the standard error. This sample holds only a part of the variants without activity.

B1: glmS ribozyme (parent)
chain: AUAAAAGCGCCAGAACUACAGAAAUGUAGUUGACGAGGAGGAGGUUUAUCGAAUUUUCGGCGGAUGCCUCCAAA

Columns and labels:
Conditions in all cases: with glucosamine-6-phosphate
glucosamine-6-phosphate [1] = variants of: B1; assay: self-cleavage kobs at 40 uM GlcN6P; higher = faster cleavage; RNA array
Outline: (§1)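 Sequenced MiSeq chips were the platform: E. coli RNA polymerase transcribed barcoded ribozyme variants on them in situ, and a hybridised Cy3 probe tracked these at 37 °C. After glucosamine-6-phosphate (40 μM to 10 mM) in HEPES/KCl/Mg(OAc)2 buffer was flowed in, tiles were imaged over ~14 h. Signals normalised to baseline and to non-cleaving reference variants were reduced to per-tile medians and fit to one- or two-exponential decays to obtain kobs. kcat and KM were derived through weighted Michaelis–Menten fits across concentrations.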

glucosamine-6-phosphate [2] = variants of: B1; assay: self-cleavage kobs at 2500 uM GlcN6P; higher = faster cleavage; RNA array
Outline: as §1

glucosamine-6-phosphate [3] = variants of: B1; assay: self-cleavage kobs at 10000 uM GlcN6P; higher = faster cleavage; RNA array
Outline: as §1

glucosamine-6-phosphate [4] = variants of: B1; assay: self-cleavage kobs at 160 uM GlcN6P; higher = faster cleavage; RNA array
Outline: as §1

glucosamine-6-phosphate [5] = variants of: B1; assay: self-cleavage kobs at 640 uM GlcN6P; higher = faster cleavage; RNA array
Outline: as §1

Row | Variant | self-cleavage kobs at 40 uM GlcN6P (glucosamine-6-phosphate [1]) [s⁻¹] | self-cleavage kobs at 2500 uM GlcN6P (glucosamine-6-phosphate [2]) [s⁻¹] | self-cleavage kobs at 10000 uM GlcN6P (glucosamine-6-phosphate [3]) [s⁻¹] | self-cleavage kobs at 160 uM GlcN6P (glucosamine-6-phosphate [4]) [s⁻¹] | self-cleavage kobs at 640 uM GlcN6P (glucosamine-6-phosphate [5]) [s⁻¹]
1 | A6C C11G U30G G35U C50G C58G | 0.00011 ± 2.3e-05 | 0.000242 ± 4.4e-05 | 0.000175 ± 5.1e-05 | – | –
2 | A12C G43U C70A | < 1e-05 | – | < 1e-05 | – | –
3 | A6C A48C | < 1e-05 | < 1e-05 | < 1e-05 | < 1e-05 | < 1e-05
4 | U46G C50G | 4.21e-05 ± 9.2e-06 | – | 2.21e-05 ± 7.3e-06 | 7.37e-05 ± 1.5e-05 | 4.09e-05 ± 1.3e-05
5 | A6U C11A A53U | < 1e-05 | – | < 1e-05 | – | < 1e-05
6 | U55A G60A C67U | < 1e-05 | – | – | – | –
7 | U47C C61U G63U | < 1e-05 | – | – | – | –
8 | G43C U65A | < 1e-05 | < 1e-05 | – | – | < 1e-05
9 | G29C C67U | 2.43e-05 ± 8.3e-06 | 0.000201 ± 2.6e-05 | 0.000975 ± 0.0002 | – | 0.000126 ± 1.3e-05
10 | G40U G44A U57C C61G G66U | < 1e-05 | < 1e-05 | – | – | –
11 | G7U C8G G32C U56G C61A | < 1e-05 | < 1e-05 | – | – | –
12 | A33C C71G | < 1e-05 | < 1e-05 | – | – | –
13 | G40A C68A | < 1e-05 | < 1e-05 | < 1e-05 | < 1e-05 | < 1e-05
14 | A36U U47C | < 1e-05 | – | < 1e-05 | < 1e-05 | < 1e-05
15 | C16U G32C G40U C58U | < 1e-05 | – | – | – | –
16 | C34U G40C | < 1e-05 | – | < 1e-05 | – | < 1e-05
17 | G7U A64C | < 1e-05 | – | < 1e-05 | – | < 1e-05
18 | A15C G38A C67G | < 1e-05 | – | – | – | –
19 | G7C U45G | < 1e-05 | < 1e-05 | < 1e-05 | < 1e-05 | < 1e-05
20 | A42G G59A | < 1e-05 | 4.78e-05 ± 2e-05 | – | – | –
21 | G7C G9C A15U | < 1e-05 | – | < 1e-05 | – | –
22 | A6C U49A G51U | < 1e-05 | – | < 1e-05 | – | –
23 | G35C A64G C67U | < 1e-05 | – | < 1e-05 | – | –
24 | U56C G59C | < 1e-05 | – | < 1e-05 | – | –
